The source of these data is patent US20120270273.

Common to all, as to assay: cell_activity
Series [1] deals with Klf4-dTALE (synthetic (Xanthomonas campestris pv. armoraciae Hax3 scaffold)). The note with it: mCherry reporter; endogenous KLF4 mRNA up 2.2±0.1 fold (p227).
Series [2] concerns Sox2-dTALE (synthetic (Xanthomonas campestris pv. armoraciae Hax3 scaffold)). Particulars: mCherry reporter; endogenous SOX2 mRNA up 5.5±0.1 fold (p227).
Series [3] relates to cMyc-dTALE (synthetic (Xanthomonas campestris pv. armoraciae Hax3 scaffold)). The note with it: mCherry reporter, 293FT.
The test system of series [4] is ZF-VP64 (erbB-2 zinc finger) (synthetic). Particulars: mCherry reporter induction, 293FT; positive control.

KLF4 proximal promoter site: the activity in series [1] is more than 20 fold.

SOX2 proximal promoter site: the activity in series [2] was more than 20 fold.

On to c-MYC proximal promoter site, for which the activity in series [3] was more than 20 fold.

erbB-2 promoter ZF site displayed an activity in series [4] of 16 fold.
